Results on 40 sequences are retold here after the nanobody polyreactivity screen of Harvey et al. (2022).

A short description of this series: yeast display, Sf9 membrane polyspecificity reagent, FACS + sequencing; frameworks hold sequencing errors. In a few lines: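 Galactose induction of a Saccharomyces cerevisiae BJ5465 synthetic nanobody display library ran 36–48 hours. The cells were then stained for 1 hour at 4 °C with 10% biotinylated, detergent-solubilized Sf9 membrane reagent, pulled down on streptavidin microbeads and FACS-sorted into low and high (top ~1%) gates on expression and reagent-binding fluorescence. Labels for polyreactivity follow the gate of origin.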
With “QVQLVESGGGLVQAGGSLRLSCAASGYIFRGYVMGWYRQAPGKERELVAAITSRGDSTYYADSVKGRFTISRDNAKNTVYLQMNSLKPEDTAVYYCNAVHYYVEYDYWGQGTEVTVSS”, the “polyreactivity (PSR sort gate)” value is recorded as “high polyreactivity”.
With “QVQLVESGGGLVQAGGSLRLSCAASGYIFRLNAMGWYRQAAGKERELLAGISTGGRTNYADSVKGRFTISRDNAKNTVNLQMNSLTPEDTAVYYCAAAWHTASWVGSDSLGGGYWGQGTQVTVSS”, the “polyreactivity (PSR sort gate)” value was “low polyreactivity”.
The result for “QVQLVESGGGLVQAGGSLRLSCAASGYIFRLYTMGWYRQAPGKERELVAAISYSGGSTYYADSVKGRFTISRDNAKNTVYLQMNSLKPEDTAVYYCAAEDWRGYRWIRYGYWGQGTQVTVSS” reads “low polyreactivity”; that for “QVQLVESGGGLVQAGGSLRLSCAASGYIFSANAMGWYRQAPGKEREFVAAISSTGGSTYYADSVKGRFTISRDNAKNTVYLQMNSLKPEDTAVYYCAAYIRRYFHYDYWGQGTQVTVSS”, “high polyreactivity”; that for “QVQLVESGGGLVQAGGSLRLSCAASGYIFSGYAMGWYRQAPGKERELVAAISSSGGRTYYADSVKGRFTISRDNAKNTVYLQMNSLKPEDTAVYYCATVPRKTPGNAELDYWGQGTQVTVSS”, “high polyreactivity”.
“QVQLVESGGGLVQAGGSLRLSCAASGYIFSLNGMGWYRQEPVKERELVAAITVSGGRTYYADSVKGRFTISRDNAKNTVYLQMNSLKPEDTAVYYCAKRGKYSYWPYYKYDYWGQGTQVTVSS”: the “polyreactivity (PSR sort gate)” value was “high polyreactivity”.
The result for “QVQLVESGGGLVQAGGSLRLSCAASGYIFSYNAMGWYRQAPGKERELVAAITGDSGTYYADSVKGRFTISRDNAKNTVYLQMNSLKPEDTAVYYCATDPYIFPVFYDLYWGYNYWGQGTQVTVSS” reads “low polyreactivity”.
Regarding “QVQLVESGGGLVQAGGSLRLSCAASGYIFTRNAMGWYRQAPGKDRELVAAISQGGGSTYYADSVKGRFTISRDNAKNTVYFQMNSLKPEDTAVYYCAAYFYTFVGYDYWGQGTQVTVSS”, the “polyreactivity (PSR sort gate)” value was “low polyreactivity”.
The result for “QVQLVESGGGLVQAGGSLRLSCAASGYIFVKNAMGWYRQAPGKERELVAAISTRGGRTYYADSVKGRFTISRDNAKNTVYLQMNSLKPEDTAVYYCAAVHQTSYYDANSYGYWGQGTQVTVSS” reads “high polyreactivity”; that for “QVQLVESGGGLVQAGGSLRLSCAASGYIFVRNAMGWYRQAPGKERELVAAISGSGGSTYYADSVKGRFTISRDNAKNSVYLQMNSLKPEDTAVYYCAARRYGYRYDQPYSNDYWGLGTQVTVSS”, “low polyreactivity”; that for “QVQLVESGGGLVQAGGSLRLSCAASGYIFYAYAMGWYRQAPGKERELVAAISSGGGRTYYADSVKGRFTISRDNAKNTVDLQRNSLKPEDTAVYYCAARRRDRGEYYYWGQGTQVTVSS”, “high polyreactivity”.
The result for “QVQLVESGGGLVQAGGSLRLSCAASGYIFYDNAMGWYRQAPGKERELVAAISASGGDTYYADSVKGRFTISRDNAKNTVYLQMNSLKPEDTAVYYCAADLITYAMEYWGQGTEVTVSS” reads “low polyreactivity”.
The result for “QVQLVESGGGLVQAGGSLRLSCAASGYIFYNYAMGWYRQAPGKERELVAAISRRGGSTYYADSVKGRFTISRDNAKNTVYLQMNSLKPEDTAVYYCAKTPYAHPNYYTDYYWGQGTQVTVSS” reads “high polyreactivity”; that for “QVQLVESGGGLVQAGGSLRLSCAASGYIIDNNSMAWYRQAPGKERELVASNTNSAGSTSYADSVKGRFTISRDNAKNTVYLQMNSLKPEDTAVYYCAAKRYHYFFPYSRRGAYGYWGQGTQVTVSS”, “high polyreactivity”; that for “QVQLVESGGGLVQAGGSLRLSCAASGYILPKNTMGWYRQAPGKERELVAAISWSGGSTFYADSVKGRFTISRDNAKNTVYLQMNSLKPEDTAVYYCAADRYWSWYYRYDYWGQGTQVTVSS”, “low polyreactivity”.
On to “QVQLVESGGGLVQAGGSLRLSCAASGYILPKNTMGWYRQAPGKERESVAVITYSGGSTYYADSVKGRFTISRDNAKNTVYLQMNSLKPEDTAVYYCAADKWYYVRYPTDAYSKFDYWGQGTQVTVSS”, for which the “polyreactivity (PSR sort gate)” value was “low polyreactivity”.
The result for “QVQLVESGGGLVQAGGSLRLSCAASGYILRSNAMGWYRQAPGKEREFVAAITYSGGSTYYADSEKGRFTISLDNAMNSVYLQMNSLKPEDTAVYYCAKTTRYQRGYGYWGQGTQVTVSS” reads “low polyreactivity”; that for “QVQLVESGGGLVQAGGSLRLSCAASGYILWNAMGWYRQAPGKERELVAAIRFRGGSTSYADSVKGRFTISRDNAKNTVYLQMNSLKPEDTAVYYCNARWWVIRPYQRHDYWGQGTQVTVSS”, “low polyreactivity”.
The result for “QVQLVESGGGLVQAGGSLRLSCAASGYISSYNPMGWSRQAPGKERELVASITRGGSTYYADSVKGRFTISRDNAKNTVYLQMNSLKPEDTAVYYCAADTLRQYDYEYWGQGTQVTVSS” reads “high polyreactivity”.
For the sequence “QVQLVESGGGLVQAGGSLRLSCAASGYIWCYAMGWDRQAPGKEWELVAAISWGGGSTYYADSVKGRFTISRDNAKNTVYLQMNSLKREDTAVYYCAAVDAVGPTSHAMYYWGLGTQVTVSS”, the “polyreactivity (PSR sort gate)” value is on record as “low polyreactivity”.
The result for “QVQLVESGGGLVQAGGSLRLSCAASGYNFFSYAKGWYRQPPGKERELVAAISRGGRTYYADSVKGRFTISRDNAKNTVYLQMKILKPEDTAVYYCNAVSTPGKYGYWGQGTQVTVSS” reads “high polyreactivity”; that for “QVQLVESGGGLVQAGGSLRLSCAASGYSFYYNAMGWYRQAPGKERELVAAISYTGGSTYYADSVKGRFTISRDNAKNTVYLQMNSLKPEDTAVYYCAAEYYTYVSDNYQHYGYWGQGTQVTVSS”, “low polyreactivity”.
The result for “QVQLVESGGGLVQAGGSLRLSCAASGYTCDANAMGWYRQATGKERELVASISSISDSTDYADAVKGRITISRDNATNTVYLQMKILKPEDTAVYYCARSDVKPGRQERDYWGQGTQVTVSS” reads “low polyreactivity”; that for “QVQLVESGGGLVQAGGSLRLSCAASGYTFAGYAMGWYRQAPGKERELVAAISRNGGTTYYADSVKGRFTISRDNAKNTVYLQMNSLKPEDTADYYCNKRGWYSVYRRDYWGQGTQVTVSS”, “high polyreactivity”.
The result for “QVQLVESGGGLVQAGGSLRLSCAASGYTFANNAMGWYRQAPGKERELVAVITWSGDSTYYADSVKGRFTISRDNAKNTVYLQMNSQKAEDTAVYYCAREFSDGLSGKFDYWGQGTQLTVSS” reads “low polyreactivity”; that for “QVQLVESGGGLVQAGGSLRLSCAASGYTFAPNTMGWYRQAPGKERELVATITVSGGITYADSVKGRFTISRDNAKNTVYLQMNSLKPEDTAVYYCAARTPGWYLPRDYWGQGTQVTVSS”, “low polyreactivity”; that for “QVQLVESGGGLVQAGGSLRLSCAASGYTFATYTMGWYRQAPGKERELVAAITGGGGSTSYADSVKGRFTISRDNAKNTVYLQMNSLKLEDTAVYYCNAGISVDYSLEKYDYWGQGTQVTVSS”, “low polyreactivity”.
For “QVQLVESGGGLVQAGGSLRLSCAASGYTFAWYAMGWYRQAPGKERELVAAITVSGGSTYYADSVKGRFTISRDNAKNTVYVQMNSLKPEDTAVYYCAADYAPLDLYQDSTVYSSGDYWGQGTQVTVSS”, the “polyreactivity (PSR sort gate)” value is “low polyreactivity”.
As for “QVQLVESGGGLVQAGGSLRLSCAASGYTFAWYTMGWYRQAPGKERELVAAISASGVRTYYADSVKGRFTISRDNAKNTVYLQMNSLKPQDTAVYYCNRVYSTSRITQYEFDYWGQGTQVTVSS”, the “polyreactivity (PSR sort gate)” value is “low polyreactivity”.
For “QVQLVESGGGLVQAGGSLRLSCAASGYTFDAYAMGWYRQAPGKERELVAAITTNGGSTYYADSVKGRFTISRDNAKNTVFLQMNSLIPEDTAVFYCKAEYWYEGRYPYDYWGQGTQVTVSS”, the “polyreactivity (PSR sort gate)” value is “low polyreactivity”.
Turning to “QVQLVESGGGLVQAGGSLRLSCAASGYTFDYYAMGRYRQAPGNERELVAAITNSGGSTYYADSVKGRFTISRDNAKKTVYLQMNSLKPEDPAVYYCAALYYVKPGQRYDYWGQGTQVTVSS”, the “polyreactivity (PSR sort gate)” value is “high polyreactivity”.
In the case of “QVQLVESGGGLVQAGGSLRLSCAASGYTFFEYTMGWYRQAPGKVREFVAAISWSGGITYYADSVKGRFTISRDNAKNTVYLQMNSLKPEDTAVYYCNADIYSPTPIDYNYWGQGTQVTVSS”, the “polyreactivity (PSR sort gate)” value is “low polyreactivity”.
The result for “QVQLVESGGGLVQAGGSLRLSCAASGYTFGGYAMGWYRQAPGKERELVAAISGSGVRTYYADSVKGRFTISRDNAKNTVYLQMNSLKPEDTAVYYCAKRVRYPGDRYYYWGQGTQVTVSS” reads “high polyreactivity”; that for “QVQLVESGGGLVQAGGSLRLSCAASGYTFGHYAMGWYRQAPGKERELVAVITSGGSTNYADSVKGRFTISRDNAKNTVYLQMNSLKPEDTAVYYCAADLYFYYVWIRDYWGQGTQVTVSS”, “low polyreactivity”; that for “QVQLVESGGGLVQAGGSLRLSCAASGYTFGIYAMGWYRQAPGKAREFVAAIRWSDTSTSYADSVKWRFTISRDNAKNTVYLQMNSLKPEDTAVYNCAADTFYLYDYWGQGTQVTVSS”, “low polyreactivity”.
For “QVQLVESGGGLVQAGGSLRLSCAASGYTFGLYTMGWYRQAPGKEREFVATIDWSDGGTHYADSVKGRFTISRDNAKNTVYLQMNSLKPEDTAVYYCNADWYAYPYGYWGQGTQVTVSS”, the “polyreactivity (PSR sort gate)” value was “low polyreactivity”.
As for “QVQLVESGGGLVQAGGSLRLSCAASGYTFGTYDKGWYRQAPGKERELVAAISIGGSTNYADSVKGRFTISRDNAKNTVYLQMNSLKPEDTAVYYCAAEVNVGTLLLSVIVEDGDYWGQGTQVTVSS”, the “polyreactivity (PSR sort gate)” value is given as “low polyreactivity”.
Turning to “QVQLVESGGGLVQAGGSLRLSCAASGYTFGTYTMGWYRMARWKERELVAGIDSGGTTNYADSVKGRFTISRDNATNTVYLQMHSLKPEHTAVYYSTAYHLLIVDYYLGLYYYRGNYYWGQGTQVTVSS”, the “polyreactivity (PSR sort gate)” value was “low polyreactivity”.
Consider “QVQLVESGGGLVQAGGSLRLSCAASGYTFGTYTMGWYRQAPGKERELVAGIDSGGTTNYADSVKGRFTISRDNAKNTVYLKMNRVKPEDTAVYYCTAYHLLIVDYYLGMYYYGGNYYWGQGNQVTVSS”, for which the “polyreactivity (PSR sort gate)” value is on record as “low polyreactivity”.
Consider “QVQLVESGGGLVQAGGSLRLSCAASGYTFKSYVMGWYRQAPGKERELVAAITSIGGSTYYADSVKGRFTISRDNAKNTVYLQMNRLKPEDTAVYYCAARSFRFYPRMHDWGQGTQVTVSS”, for which the “polyreactivity (PSR sort gate)” value is given as “high polyreactivity”.
